From US20240192215A1 (E AND S HEALTHCARE, published 2024)
Values belong to the binder of their own block, whether it stands above or below them.

Experiments:
Peptide_012 [1] = target: T1, Peptide_012 (human); assay: peptide microarray, 5 ug/mL
T1 construct: 15-mer on microarray; not native form, includes recombinant insert region
T1 peptide: HHHHHHHVKQIESKT
Procedure: (§1) 5, 1, 0.2, 0.04, 0.008 and 0.0016 μg/mL serial dilutions were incubated on a single multi-well microarray slide at 30° C. for 1 hour. The slide includes 21 individual mini-arrays (one mini-array per sample dilution).
(§2) DyLight 650 was used as a label. False-positive binding to a peptide was evaluated by performing one additional control incubation in which only a secondary antibody was applied on the same microarray slide. Before performing each step, the microarrays were washed with a washing buffer.

Peptide_013 [2] = target: T2, Peptide_013 (human); assay: peptide microarray, 5 ug/mL
T2 construct: 15-mer on microarray; not native form, includes recombinant insert region
T2 peptide: HHHHHHVKQIESKTA
Procedure: as §1, §2

Peptide_015 [3] = target: T3, Peptide_015 (human); assay: peptide microarray, 5 ug/mL
T3 construct: 15-mer on microarray; not native form, includes recombinant insert region
T3 peptide: HHHHVKQIESKTAFQ
Procedure: as §1, §2

Peptide_018 [4] = target: T4, Peptide_018 (human); assay: peptide microarray, 5 ug/mL
T4 construct: 15-mer on microarray; not native form, includes recombinant insert region; also called HVKQIESKTAFQEAL
T4 peptide: HVKQIESKTAFQEAL
Procedure: as §1, §2

Peptide_022 [5] = target: T5, Peptide_022 (human); assay: peptide microarray, 5 ug/mL
T5 construct: 15-mer of hTrx1 on microarray
T5 peptide: IESKTAFQEALDAAG
Procedure: as §1, §2

Peptide_024 [6] = target: T6, Peptide_024 (human); assay: peptide microarray, 5 ug/mL
T6 construct: 15-mer of hTrx1 on microarray
T6 peptide: SKTAFQEALDAAGDK
Procedure: as §1, §2

Peptide_045 [7] = target: T7, Peptide_045 (human); assay: peptide microarray, 5 ug/mL
T7 construct: 15-mer of hTrx1 on microarray
T7 peptide: SATWCGPCKMIKPFF
Procedure: as §1, §2

Peptide_051 [8] = target: T8, Peptide_051 (human); assay: peptide microarray, 5 ug/mL
T8 construct: 15-mer of hTrx1 on microarray
T8 peptide: PCKMIKPFFHSLSEK
Procedure: as §1, §2

Peptide_085 [9] = target: T9, Peptide_085 (human); assay: peptide microarray, 5 ug/mL
T9 construct: 15-mer of hTrx1 on microarray
T9 peptide: ECEVKCMPTFQFFKK
Procedure: as §1, §2

Peptide_086 [10] = target: T10, Peptide_086 (human); assay: peptide microarray, 5 ug/mL
T10 construct: 15-mer of hTrx1 on microarray
T10 peptide: CEVKCMPTFQFFKKG
Procedure: as §1, §2

Peptide_092 [11] = target: T11, Peptide_092 (human); assay: peptide microarray, 5 ug/mL
T11 construct: 15-mer of hTrx1 on microarray
T11 peptide: PTFQFFKKGQKVGEF
Procedure: as §1, §2

Peptide_093 [12] = target: T12, Peptide_093 (human); assay: peptide microarray, 5 ug/mL
T12 construct: 15-mer of hTrx1 on microarray
T12 peptide: TFQFFKKGQKVGEFS
Procedure: as §1, §2

Peptide_094 [13] = target: T13, Peptide_094 (human); assay: peptide microarray, 5 ug/mL
T13 construct: 15-mer of hTrx1 on microarray
T13 peptide: FQFFKKGQKVGEFSG
Procedure: as §1, §2

Peptide_012 [14] = target: T1, Peptide_012; assay: peptide microarray, 0.04 ug/mL
Procedure: as §1, §2

Peptide_013 [15] = target: T2, Peptide_013; assay: peptide microarray, 0.04 ug/mL
Procedure: as §1, §2

Peptide_014 = target: T14, Peptide_014 (human); assay: peptide microarray, 0.04 ug/mL
T14 construct: 15-mer on microarray; not native form, includes recombinant insert region
T14 peptide: HHHHHVKQIESKTAF
Procedure: as §1, §2

Peptide_015 [16] = target: T3, Peptide_015; assay: peptide microarray, 0.04 ug/mL
Procedure: as §1, §2

Peptide_018 [17] = target: T4, Peptide_018; assay: peptide microarray, 0.04 ug/mL
Procedure: as §1, §2

Peptide_019 = target: T15, Peptide_019 (human); assay: peptide microarray, 0.04 ug/mL
T15 construct: 15-mer of hTrx1 on microarray
T15 peptide: VKQIESKTAFQEALD
Procedure: as §1, §2

Peptide_020 = target: T16, Peptide_020 (human); assay: peptide microarray, 0.04 ug/mL
T16 construct: 15-mer of hTrx1 on microarray
T16 peptide: KQIESKTAFQEALDA
Procedure: as §1, §2

Peptide_021 = target: T17, Peptide_021 (human); assay: peptide microarray, 0.04 ug/mL
T17 construct: 15-mer of hTrx1 on microarray
T17 peptide: QIESKTAFQEALDAA
Procedure: as §1, §2

Peptide_022 [18] = target: T5, Peptide_022; assay: peptide microarray, 0.04 ug/mL
Procedure: as §1, §2

Peptide_023 = target: T18, Peptide_023 (human); assay: peptide microarray, 0.04 ug/mL
T18 construct: 15-mer of hTrx1 on microarray
T18 peptide: ESKTAFQEALDAAGD
Procedure: as §1, §2

Peptide_024 [19] = target: T6, Peptide_024; assay: peptide microarray, 0.04 ug/mL
Procedure: as §1, §2

Peptide_025 = target: T19, Peptide_025 (human); assay: peptide microarray, 0.04 ug/mL
T19 construct: 15-mer of hTrx1 on microarray
T19 peptide: KTAFQEALDAAGDKL
Procedure: as §1, §2

Peptide_045 [20] = target: T7, Peptide_045; assay: peptide microarray, 0.04 ug/mL
Procedure: as §1, §2

Peptide_051 [21] = target: T8, Peptide_051; assay: peptide microarray, 0.04 ug/mL
Procedure: as §1, §2

Peptide_084 = target: T20, Peptide_084 (human); assay: peptide microarray, 0.04 ug/mL
T20 construct: 15-mer of hTrx1 on microarray
T20 peptide: SECEVKCMPTFQFFK
Procedure: as §1, §2

Peptide_085 [22] = target: T9, Peptide_085; assay: peptide microarray, 0.04 ug/mL
Procedure: as §1, §2

Peptide_086 [23] = target: T10, Peptide_086; assay: peptide microarray, 0.04 ug/mL
Procedure: as §1, §2

Peptide_092 [24] = target: T11, Peptide_092; assay: peptide microarray, 0.04 ug/mL
Procedure: as §1, §2

Peptide_093 [25] = target: T12, Peptide_093; assay: peptide microarray, 0.04 ug/mL
Procedure: as §1, §2

Peptide_094 [26] = target: T13, Peptide_094; assay: peptide microarray, 0.04 ug/mL
Procedure: as §1, §2

Peptide_095 = target: T21, Peptide_095 (human); assay: peptide microarray, 0.04 ug/mL
T21 construct: 15-mer of hTrx1 on microarray
T21 peptide: QFFKKGQKVGEFSGA
Procedure: as §1, §2

Peptide_005 [27] = target: T22, Peptide_005 (human); assay: peptide microarray, 5 ug/mL
T22 construct: 15-mer on microarray; not native form, recombinant insert region
T22 peptide: ADVHSQHHHHHHHHV
Procedure: as §1, §2

Peptide_004 = target: T23, Peptide_004 (human); assay: peptide microarray, 0.04 ug/mL
T23 construct: 15-mer on microarray; not native form, recombinant insert region
T23 peptide: AADVHSQHHHHHHHH
Procedure: as §1, §2

Peptide_005 [28] = target: T22, Peptide_005; assay: peptide microarray, 0.04 ug/mL
Procedure: as §1, §2

signal (blank-control = 1) (Peptide_012 [1]): 4.49 | signal (blank-control = 1) (Peptide_013 [2]): 4.87 | signal (blank-control = 1) (Peptide_015 [3]): 5.96 | signal (blank-control = 1) (Peptide_018 [4]): 6.15 | signal (blank-control = 1) (Peptide_022 [5]): 5.54 | signal (blank-control = 1) (Peptide_024 [6]): 6.09 | signal (blank-control = 1) (Peptide_045 [7]): 4.9 | signal (blank-control = 1) (Peptide_051 [8]): 4.28 | signal (blank-control = 1) (Peptide_085 [9]): 3.87 | signal (blank-control = 1) (Peptide_086 [10]): 1.9 | signal (blank-control = 1) (Peptide_092 [11]): 6.78 | signal (blank-control = 1) (Peptide_093 [12]): 6.18 | signal (blank-control = 1) (Peptide_094 [13]): 4.13 | signal (blank-control = 1) (Peptide_012 [14]): 1.15 | signal (blank-control = 1) (Peptide_013 [15]): 1.4 | signal (blank-control = 1) (Peptide_014): 1.49 | signal (blank-control = 1) (Peptide_015 [16]): 1.69 | signal (blank-control = 1) (Peptide_018 [17]): 1.64 | signal (blank-control = 1) (Peptide_019): 1.2 | signal (blank-control = 1) (Peptide_020): 1.33 | signal (blank-control = 1) (Peptide_021): 1.35 | signal (blank-control = 1) (Peptide_022 [18]): 2.89 | signal (blank-control = 1) (Peptide_023): 1.15 | signal (blank-control = 1) (Peptide_024 [19]): 2.38 | signal (blank-control = 1) (Peptide_025): 2.39 | signal (blank-control = 1) (Peptide_045 [20]): 4.59 | signal (blank-control = 1) (Peptide_051 [21]): 1.41 | signal (blank-control = 1) (Peptide_084): 1.83 | signal (blank-control = 1) (Peptide_085 [22]): 1.48 | signal (blank-control = 1) (Peptide_086 [23]): 1.14 | signal (blank-control = 1) (Peptide_092 [24]): 5.18 | signal (blank-control = 1) (Peptide_093 [25]): 2.46 | signal (blank-control = 1) (Peptide_094 [26]): 1.49 | signal (blank-control = 1) (Peptide_095): 1.66
B1: monoclonal antibody B264 (antibody, mouse IgG1, kappa, V domains shown)
VH: QVQLQQSGAELARPGASVKMSCKASGYTFTSYTMHWVKQRPGQGLEWIGYINPTSDYTNYNQKFKDKATLTADKSSSTAYMQLSSLTSEDSAVYFCASEGGFLYYFDYWGQGTTLTVSS
VL: DVLMTQTPLSLPVSLGDQASISCRSSQSIVHSNGNTYLEWYLQKPGQSPKLLIYKVSNRFSGVPDRFSGSGSGTDFTLKISRVEAEDLGVYYCFQGSHVPYTFGGGTKLEIKR
notes: also called AB264; B264 (Trx1-mIgG1)

signal (blank-control = 1) (Peptide_005 [27]): 7.63 | signal (blank-control = 1) (Peptide_004): 1.14 | signal (blank-control = 1) (Peptide_005 [28]): 1.6
B2: monoclonal antibody B266-1 (antibody, human IgG1)
light: QIVLTQSPAIMSASPGEKVTMTCSASSRISYMYWYQQKPGTSPKRWIYDTSKLASGVPARFSGSGSGTSYSLTISTMEAEDAATYYCHQRSSYPTFGAGTKLELKSVAAPSVFIFPPSDEQLKSGTASVVCLLNNFYPREAKVQWKVDNALQSGNSQESVTEQDSKDSTYSLSSTLTLSKADYEKHKVYACEVTHQGLSSPVTKSFNRGEC
heavy: not shown
notes: B266 with the Fc part changed to human IgG1; also called B266-1 (Trx1-hIgG1); B266-1 (hTrx1-hIgG1)
